The text below walks through data of US20200317808A1 (AbbVie / Abbott, published 2020).

One may read the EC50 as the midpoint of the concentration-response curve. Read a low EC50 as greater potency. The term EC50 (read off the curve) denotes the midpoint of the concentration-response curve. Lower therefore signals an effect from little substance. Usually Kd stands for the equilibrium constant for the complex coming apart.

Assay [1] has as its target T1, cynomolgus PD-1 Fc fusion (cynomolgus monkey, UniProt B0LAJ3 25-170).
T1 construct: also called Cyno PD-1 (ELISA)
Description: ELISA on plate bound cynomolgus PD-1 Fc fusion. For orientation: An ELISA detects its analyte on a solid surface through an enzyme-linked reagent.

Assay [2] deals with T2, human PD-1 expressed on cells (human, UniProt Q15116 25-288).
T2 construct: also called cell surface PD-1; PD-1 in Jurkat cells
T2 sequence (Q15116 25-288 limits assumed): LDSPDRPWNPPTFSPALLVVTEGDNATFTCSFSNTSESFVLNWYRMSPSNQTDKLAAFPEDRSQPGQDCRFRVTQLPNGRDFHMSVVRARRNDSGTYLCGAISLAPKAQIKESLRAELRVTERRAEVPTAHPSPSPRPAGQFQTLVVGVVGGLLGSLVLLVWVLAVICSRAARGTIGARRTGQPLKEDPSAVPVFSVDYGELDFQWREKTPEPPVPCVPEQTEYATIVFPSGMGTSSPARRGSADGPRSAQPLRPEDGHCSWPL
Description: flow cytometry on PD-1 expressing Jurkat cells; samples incubated 30 days at -80, 5, 25 or 40°C. The protocol: (§1) PD-1 expressing Jurkat cells were harvested from flasks and resuspended to 2×10⁶ cells/mL in PBS containing 1% BSA. 100 μL of cells were added to a round bottom 96 well plate containing 100 μL of titrated test antibody or isotype control. Cells were incubated with antibodies at room temperature for 25 minutes and then washed twice with PBS containing 1% BSA. The cell pellet was resuspended in 100 μL of a 1:250 diluted secondary antibody goat anti-human Fab PE. Following 25 minutes incubation at RT, cells were washed twice with PBS containing 1% BSA and resuspended in 200 μL of 1% BSA. Cells were analyzed using Becton Dickinson FACSCanto flow cytometer. Data was analyzed using BD FACSDiva software (version 8.0.1).

Assay [3] addresses T2, human PD-1 expressed on cells. Description: flow cytometry on PD-1 expressing Jurkat cells. In general terms: A flow cytometer gives signals particle by particle.
Assay [4] concerns the target T3, Recombinant extracellular domain of human PD-1 (residues 1-167) (human, UniProt Q15116 25-167).
T3 construct: Bought from a commercial source; also called recombinant soluble PD-1 ECD; PD-1 ECD
Description: SPR, Biacore T200, antibody captured by anti-human Fc, PD-1 ECD as analyte. From the text: Unreacted moieties on the biosensor surface were blocked with ethanolamine.
In general terms: Surface plasmon resonance follows binding to a sensor surface in real time, without labels.

The target in another assay is T4, human PD-1 Fc fusion (human, UniProt Q15116 25-170).
T4 construct: also called Hu PD-1 (ELISA); not shown: Fc part of the fusion
T4 sequence (Q15116 25-170 limits assumed): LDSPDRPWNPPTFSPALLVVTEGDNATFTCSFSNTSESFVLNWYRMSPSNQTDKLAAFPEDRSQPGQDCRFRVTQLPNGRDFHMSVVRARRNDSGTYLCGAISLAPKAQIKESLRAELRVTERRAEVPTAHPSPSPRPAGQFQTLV
The experiment in a line: ELISA on plate bound human PD-1 Fc fusion.

The target of assay [5] is T2, human PD-1 expressed on cells. The experiment in a line: cell-based or functional assay.
Assay [6] shares this target. Description: flow cytometry on activated human CD4+ T cells. The method, then: Cells were analyzed using Becton Dickinson FACSCanto flow cytometer. Data was analyzed using BD FACSDiva software (version 8.0.1).
The target is the same in assay [7]. The experiment in a line: flow cytometry on human PD-1 transfected Jurkat cells. The method, then: as §1
(§2) The antibody variants were screened for binding to human PD-1 transfected Jurkat cells and EC₅₀ values were determined (FIG. 3B).

For assay [8] the target is unchanged. The experiment in a line: flow cytometry on PD-1 expressing Jurkat cells; samples stored 30 days at the given temperature or oxidised with 1% hydrogen peroxide or 1% tert-butyl hydroperoxide. The protocol:
as §1, §2

T1 sequence (B0LAJ3 entry or part of it limits assumed): as the sequence (Q15116 25-170 limits assumed) above, with D2E, P10A, V19L, T35A, Q75R, T144A counted along it
T3 sequence (Q15116 25-167): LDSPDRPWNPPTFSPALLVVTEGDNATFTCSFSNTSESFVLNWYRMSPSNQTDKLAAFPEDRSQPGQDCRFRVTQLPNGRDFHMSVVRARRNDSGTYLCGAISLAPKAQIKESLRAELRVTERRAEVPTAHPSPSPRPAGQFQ
Description for human PD-1 Fc fusion: Immunolon 4×HB 96 well plates were coated with 1 ug/ml of human PD-1 Fc fusion in at 4° C. overnight. Plates were blocked with PBS containing 1% BSA for 30 minutes at room temperature and then washed three times with PBS containing 0.1% Tween 20 (PBST) using a plate washer. PD-1-coated plates were then incubated with indicated concentrations of antibodies at room temperature (RT) for one hour. Plates were washed four times with PBST and then incubated for 1 hour at room temperature with 100 μL of goat anti-human Fab fragment specific-biotin prepared to a dilution of 1:5000 in PBS containing 1% BSA. Plates were washed five times in PBST and 100 μL of a 1:1000 dilution of Streptavidin-HRP was added to each well and incubated for 30 minutes at RT. Plates were washed five times in PBST and 100 μL of TMB One Component were added to each well and incubated at RT until color developed (approximately 5-10 minutes). Optical density (OD) was read at 650 nm using Spectromax190 (Molecular Devices).

For Nivolumab (antibody), the half-maximal effective concentration (EC50) in [1] stood at 0.07 nM. This counts as picomolar.

B1: Humanized 12A11.2b with M99L in CDR-H3 (antibody, V domains shown)
VH: EIQLVQSGAEVKKPGSSVKVSCKASGYTFTHYGMNWVRQAPGQGLEWVGWVNTYTGEPTYADDFKGRLTFTLDTSTSTAYMELSSLRSEDTAVYYCTREGEGLGFGDWGQGTTVTVSS
VL: DVVMTQSPLSLPVTPGEPASISCRSSQSIVHSHGDTYLEWYLQKPGQSPQLLIYKVSNRFSGVPDRFSGSGSGTDFTLKISRVEAEDVGVYYCFQGSHIPVTFGQGTKLEIK
notes: It was detected with anti-human Fab and captured with anti-human IgG Fc; also called Hu12A11.2b4; humanized antibody 12A11.2b M99L
Turning to B1, the “EC50 (read off the curve)” value in assay [2] was roughly 0.01 µg/mL. For the same molecule, the EC50 in assay [1] was 0.102 nM; in assay [3] it was 0.045 nM; with human PD-1 Fc fusion, 0.197 nM; in assay [6], 0.18 nM. Also, the dissociation constant (Kd) in assay [4] was determined as 2.1 nM. The “Jurkat NFAT EC50” value in assay [5] worked out at 4.5 µg/mL.

B2: Humanized 12A11.2b with M99I in CDR-H3 (antibody, V domains shown)
VH: EIQLVQSGAEVKKPGSSVKVSCKASGYTFTHYGMNWVRQAPGQGLEWVGWVNTYTGEPTYADDFKGRLTFTLDTSTSTAYMELSSLRSEDTAVYYCTREGEGIGFGDWGQGTTVTVSS
VL: DVVMTQSPLSLPVTPGEPASISCRSSQSIVHSHGDTYLEWYLQKPGQSPQLLIYKVSNRFSGVPDRFSGSGSGTDFTLKISRVEAEDVGVYYCFQGSHIPVTFGQGTKLEIK
notes: also called Hu12A11.2b2; M99I variant
As for B2, the binding result in [7] is “binds”.

B3: Humanized 12A11.2b with M99V in CDR-H3 (antibody, V domains shown)
VH: EIQLVQSGAEVKKPGSSVKVSCKASGYTFTHYGMNWVRQAPGQGLEWVGWVNTYTGEPTYADDFKGRLTFTLDTSTSTAYMELSSLRSEDTAVYYCTREGEGVGFGDWGQGTTVTVSS
VL: DVVMTQSPLSLPVTPGEPASISCRSSQSIVHSHGDTYLEWYLQKPGQSPQLLIYKVSNRFSGVPDRFSGSGSGTDFTLKISRVEAEDVGVYYCFQGSHIPVTFGQGTKLEIK
notes: also called Hu12A11.2b3; M99V variant
As to B3, the binding result in [7] was “binds”.

B4: Humanized 12A11.2b with mouse CDRs (antibody, V domains shown)
VH: EIQLVQSGAEVKKPGSSVKVSCKASGYTFTHYGMNWVRQAPGQGLEWVGWVNTYTGEPTYADDFKGRLTFTLDTSTSTAYMELSSLRSEDTAVYYCTREGEGMGFGDWGQGTTVTVSS
VL: DVVMTQSPLSLPVTPGEPASISCRSSQSIVHSHGDTYLEWYLQKPGQSPQLLIYKVSNRFSGVPDRFSGSGSGTDFTLKISRVEAEDVGVYYCFQGSHIPVTFGQGTKLEIK
notes: also called Hu12A11.2b1; M99 parent antibody
On to B4, for which the binding result in assay [8] is “binds”.
